Measurements taken from JP2014185312A (dated 2014).
No end group written: not given here.

Target: T1, Recombinant Human ErbB2/Fc Chimera (R&D Systems) (human, UniProt P04626 23-652)
T1 construct: Bought reagent, immobilised by amine coupling on a GLM sensor chip (about 3000 RU); also called HER2; not shown: Fc part (and any linker or tag) of the bought chimera; not described
Assay: SPR (ProteOn XPR36), ErbB2/Fc immobilised on GLM chip, conjugate as analyte, 1:1 Langmuir fit

binding result | Binder
binds | MARSGLGGKGSC (not fully specified (residue 12); also: labelled with ICG-Sulfo-OSu, position not given here, Tested as the PEG/ICG conjugate; also called pe−PEG40)
binds | MARSGLGGKGSC (not fully specified (residue 12); also: labelled with ICG-Sulfo-OSu, position not given here, Tested as the PEG/ICG conjugate; also called pe−PEG20)
